For one substance, stoichiometry N results are on record in PMC11685663.

The target in this experiment is recombinant H5 hemagglutinin (rH5) ectodomain from A/Texas/37/2024 (H5N1, clade 2.3.4.4b) (influenza A virus A/Texas/37/2024 (H5N1)). The experiment is described as follows: cryo-EM structure.

For orientation: stoichiometry N means the number of molecules, sites or subunits per partner or assembly.

As for “recombinant H5 hemagglutinin (rH5) ectodomain from A/Texas/37/2024 (H5N1, clade 2.3.4.4b) (natural protein)”, the stoichiometry N amounted to 3.
